We go through 3 substances from publication PMC8565784.

Series [1] can be described thus: SDS-PAGE-Western blot of VLP Env. To be noted: glycan gained; control: Q23 SOS gp160ΔCT parent. A general note: In western blotting, separated proteins are transferred to a membrane and probed.
Series [2] in a line: pQC-Fluc PV neutralisation. Conditions: glycan gained; control: Q23 SOS gp160ΔCT parent.

As to Q23 Env: D674N, the expression_or_secretion entry in series [1] is given as “decreases”. For the same substance, in series [2], the “other: neutralisation sensitivity” value is “increases”.
The corresponding values for Q23 Env: D49N+D674N are “no change” and “increases”.
On to Q23 Env: D49N, for which the expression_or_secretion result in series [1] is “increases”. The “other: neutralisation sensitivity” value in series [2] is reported as “increases”.
